Reference: patent US20120156201A1 (PROTAB, published 2012)
Positions count from the first letter of the chain named.

Key:
[1] = molecular target: T1, peptide-6 (HSP65-derived peptide, GPKGRNVVLEKKWGAP) (Mycobacterium tuberculosis); assay: ELISA, plates precoated with 10 µg/ml peptide-6, goat anti-human IgG peroxidase
T1 construct: also called peptide-6 antigen; 15
T1 peptide: GPKGRNVVLEKKWGAP

[2] = molecular target: T1, peptide-6 (HSP65-derived peptide, …); assay: ELISA, plates precoated with 10 µg/ml peptide-6, goat anti-mouse IgM peroxidase
[3] = molecular target: T1, peptide-6 (HSP65-derived peptide, …); assay: ELISA, peptide-6 coated at 10 µg/ml
[4] = molecular target: T1, peptide-6 (HSP65-derived peptide, …); assay: ELISA, peptide-6 coated at 10 µg/ml, anti-human IgG kappa peroxidase
[5] = molecular target: T1, peptide-6 (HSP65-derived peptide, …); assay: ELISA, peptide-6 coated plate
[6] = molecular target: T2, human adenylyl cyclase-associated protein 1 (CAP1) fused to His tag at the N-terminus (human, UniProt Q01518 1-475); assay: Western blot of over-expressed and purified His-CAP1
T2 construct: also called His-CAP1; His-tagged CAP1; not shown: 6xHIS tag at the N terminus from a modified Pet22b vector
T2 sequence (Q01518 whole entry, the tested form may be a part): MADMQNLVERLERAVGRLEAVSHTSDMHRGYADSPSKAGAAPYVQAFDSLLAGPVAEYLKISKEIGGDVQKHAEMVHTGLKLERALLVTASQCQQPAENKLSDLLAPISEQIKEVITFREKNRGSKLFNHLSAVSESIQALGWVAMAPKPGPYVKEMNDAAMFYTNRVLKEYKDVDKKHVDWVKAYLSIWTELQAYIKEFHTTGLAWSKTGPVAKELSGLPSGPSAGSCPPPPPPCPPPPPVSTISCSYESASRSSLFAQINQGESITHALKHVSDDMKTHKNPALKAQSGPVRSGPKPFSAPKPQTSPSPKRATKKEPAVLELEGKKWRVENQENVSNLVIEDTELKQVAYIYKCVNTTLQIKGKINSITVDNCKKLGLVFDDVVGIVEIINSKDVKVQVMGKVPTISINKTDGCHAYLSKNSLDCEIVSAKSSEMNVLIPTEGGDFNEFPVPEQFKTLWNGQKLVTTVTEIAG

B1: chimeric mouse-human anti-peptide-6 IgG1 antibody (antibody, V domains shown)
VH: QVTLKESGPGILQPSQTLSLTCSFSGFSLSTSNMGVGWIRQPSGKGLEWLLHILWNDSKYYNPALKSRLTISKDTYNNQVFLKIANVDTADTATYYCARMGGYYGNYGYYAMDYWGQGTSVTVSS
VL: QIVLTQSPAIMSASLGERVTMTCTASSSVSSSYLHWYQQKPGSSPKLWIYSTSNLASGVPARFSGSGSGTSYSLTISSMEAEDAATYYCHQYHRSPPTFGSGTKLEIK
notes: also called chimeric mouse IgG1; chimeric mouse antibody
[1]
  binding result: binds

B2: mouse anti-peptide-6 monoclonal antibody (IgM) (antibody, V domains shown)
VH: B1 VH
VL: B1 VL
notes: also called mouse-IgM
[2]
  binding result: binds

B3: humanized anti-peptide-6 antibody variant VH2/VK2 (antibody, V domains shown)
VH: QVTLKESGPALVKPTQTLTLTCSFSGFSLSTSNMGVGWIRQPAGKGLEWLLHILWNDSKYYNPALKSRLTISKDTYKNQVVLTMTNMDPVDTATYYCARMGGYYGNYGYYAMDYWGQGTLVTVSS
VL: QIVLTQSPATLSLSPGERATMSCTASSSVSSSYLHWYQQKPGKAPKLWIYSTSNLASGVPSRFSGSGSGTDYTLTISSLQPEDFATYYCHQYHRSPPTFGQGTKLEIK
[3]
  binding result: binds

B4: humanized anti-peptide-6 antibody variant VH4/VK2 (antibody, V domains shown)
VH: B3 VH with L51A, Y76S
VL: B3 VL
[4]
  binding result: binds

B5: humanized anti-peptide-6 antibody variant VH2/VK1 (antibody, V domains shown)
VH: B3 VH
VL: B3 VL with T10I, P81A
[5]
  binding result: binds

B6: humanized anti-peptide-6 antibody variant VH3/VK3 (antibody, V domains shown)
VH: B3 VH with Y76S
VL: B3 VL with M21L
[4]
  binding result: binds

B7: humanized anti-peptide-6 antibody variant VH4/VK1 (antibody, V domains shown)
VH: B3 VH with L51A, Y76S
VL: B3 VL with T10I, P81A
[4]
  binding result: binds

B8: humanized anti-peptide-6 antibody variant VH1/VK1 (antibody, V domains shown)
VH: B3 VH with L11I, A43S, L120S
VL: B3 VL with T10I, P81A
[5]
  binding result: binds

B9: humanized anti-peptide-6 antibody variant VH3/VK1 (antibody, V domains shown)
VH: B3 VH with Y76S
VL: B3 VL with T10I, P81A
[5]
  binding result: binds

B10: humanized anti-peptide-6 antibody variant VH1/VK2 (antibody, V domains shown)
VH: B3 VH with L11I, A43S, L120S
VL: B3 VL
[5]
  binding result: binds

B11: humanized anti-peptide-6 antibody variant VH3/VK2 (antibody, V domains shown)
VH: B3 VH with Y76S
VL: B3 VL
[4]
  binding result: binds

B12: humanized anti-peptide-6 antibody variant VH1/VK3 (antibody, V domains shown)
VH: B3 VH with L11I, A43S, L120S
VL: B3 VL with M21L
[5]
  binding result: binds

B13: humanized anti-peptide-6 antibody variant VH2/VK3 (antibody, V domains shown)
VH: B3 VH
VL: B3 VL with M21L
notes: also called humanized VH2/VK3; PRO01 VH2/VK3
[3]
  binding result: binds
[6]
  binding result: binds

B14: humanized anti-peptide-6 antibody variant VH4/VK3 (antibody, V domains shown)
VH: B3 VH with L51A, Y76S
VL: B3 VL with M21L
[4]
  binding result: binds
